Laboratory results taken from paper PMC10397247.
Blank lines part the entries; values can stand above or below the binder they belong to.

How the values were obtained:
[1] = target: T1, O9; test: two-hybrid library CC0; settings: mean of both orientations;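 note: natural log of median RNA to DNA barcode read ratio; higher means stronger binding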
T1 chain: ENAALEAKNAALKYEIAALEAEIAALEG

[2] = target: T2, 4H2732-AA; test: two-hybrid library CCmax;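 note: natural log of median RNA to DNA barcode read ratio; higher means stronger binding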
T2 chain: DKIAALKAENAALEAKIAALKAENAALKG

[3] = target: T3, 4H2774-AA; test: two-hybrid library CCmax; settings: mean of both orientations;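 note: natural log of median RNA to DNA barcode read ratio; higher means stronger binding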
T3 chain: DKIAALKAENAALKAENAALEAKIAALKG

[4] = target: T4, 4H2931-AA; test: two-hybrid library CCmax; settings: mean of both orientations;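 note: natural log of median RNA to DNA barcode read ratio; higher means stronger binding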
T4 chain: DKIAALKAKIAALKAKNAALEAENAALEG

[5] = target: T5, 4H3001-AA; test: two-hybrid library CCmax; settings: mean of both orientations;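 note: natural log of median RNA to DNA barcode read ratio; higher means stronger binding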
T5 chain: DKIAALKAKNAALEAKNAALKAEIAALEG

[6] = target: T6, 4H3015-AA; test: two-hybrid library CCmax; settings: mean of both orientations;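 note: natural log of median RNA to DNA barcode read ratio; higher means stronger binding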
T6 chain: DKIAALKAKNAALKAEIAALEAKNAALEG

[7] = target: T7, 4H3073-AA; test: two-hybrid library CCmax; settings: mean of both orientations
T7 chain: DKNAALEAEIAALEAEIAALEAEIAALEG

[8] = target: T8, 4H3438-AA; test: two-hybrid library CCmax; settings: mean of both orientations
T8 chain: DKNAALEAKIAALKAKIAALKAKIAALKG

[9] = target: T9, 4H347-AA; test: two-hybrid library CCmax; settings: mean of both orientations
T9 chain: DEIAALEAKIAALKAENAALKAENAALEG

[10] = target: T10, 4H406-AA; test: two-hybrid library CCmax; settings: mean of both orientations
T10 chain: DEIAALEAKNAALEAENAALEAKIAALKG

[11] = target: T11, 4H452-AA; test: two-hybrid library CCmax; settings: mean of both orientations
T11 chain: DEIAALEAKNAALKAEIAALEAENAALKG

[12] = target: T12, 4H56-AA; test: two-hybrid library CCmax; settings: mean of both orientations
T12 chain: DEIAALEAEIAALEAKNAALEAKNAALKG

[13] = target: T13, 4H_APH; test: two-hybrid library CCmax; settings: mean of both orientations
T13 chain: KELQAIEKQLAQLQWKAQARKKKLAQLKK

[14] = target: T14, 4H_BCR; test: two-hybrid library CCmax; settings: mean of both orientations
T14 chain: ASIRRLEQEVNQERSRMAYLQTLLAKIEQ

[15] = target: 4H_GCN4; test: two-hybrid library CCmax; settings: mean of both orientations
Chain of 4H_GCN4 (chain, as listed by the source): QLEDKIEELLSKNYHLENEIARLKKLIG

[16] = target: GCN2_T; test: two-hybrid library CCmax
[17] = target: T15, 4H3297-bA; test: two-hybrid library CCNG1
T15 chain: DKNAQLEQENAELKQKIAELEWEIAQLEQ

[18] = target: T16, 4H3364-bA; test: two-hybrid library CCNG1
T16 chain: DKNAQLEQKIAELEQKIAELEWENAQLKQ

[19] = target: T17, 4H3381-bA; test: two-hybrid library CCNG1
T17 chain: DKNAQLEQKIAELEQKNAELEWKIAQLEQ

[20] = target: T18, 4H349-bA; test: two-hybrid library CCNG1
T18 chain: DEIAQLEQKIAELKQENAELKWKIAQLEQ

[21] = target: T19, 4H56-bA; test: two-hybrid library CCNG1
T19 chain: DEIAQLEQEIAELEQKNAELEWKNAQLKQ

[22] = target: T20, 4H730-bA; test: two-hybrid library CCNG1
T20 chain: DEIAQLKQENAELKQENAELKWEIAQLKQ

[23] = target: T21, 4H796-bA; test: two-hybrid library CCNG1
T21 chain: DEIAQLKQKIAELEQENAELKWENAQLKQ

[24] = target: T22, 4H932-bA; test: two-hybrid library CCNG1
T22 chain: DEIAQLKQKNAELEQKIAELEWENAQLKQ

[25] = target: T23, 4H949-bA; test: two-hybrid library CCNG1
T23 chain: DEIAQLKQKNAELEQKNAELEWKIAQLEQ

[26] = target: T24, O8; test: two-hybrid library CCNG1
T24 chain: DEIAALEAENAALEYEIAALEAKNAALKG

[27] = target: T25, O9; test: two-hybrid library CCNG1
T25 chain: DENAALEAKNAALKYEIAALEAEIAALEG

[28] = target: T26, APC3645-AA; test: two-hybrid library CCmax
T26 chain: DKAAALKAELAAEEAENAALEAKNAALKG

[29] = target: T27, APC4011-AA; test: two-hybrid library CCmax; settings: mean of both orientations
T27 chain: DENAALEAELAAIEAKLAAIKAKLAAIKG

[30] = target: T28, APC4264-AA; test: two-hybrid library CCmax; settings: mean of both orientations
T28 chain: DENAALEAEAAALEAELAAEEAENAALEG

[31] = target: T29, APC4436-AA; test: two-hybrid library CCmax; settings: mean of both orientations
T29 chain: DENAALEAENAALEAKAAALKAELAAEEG

[32] = target: T30, APC5383-AA; test: two-hybrid library CCmax; settings: mean of both orientations
T30 chain: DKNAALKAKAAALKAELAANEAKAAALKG

[33] = target: T31, APC6108-AA; test: two-hybrid library CCmax; settings: mean of both orientations
T31 chain: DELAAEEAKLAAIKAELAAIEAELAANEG

[34] = target: T32, APC7099-AA; test: two-hybrid library CCmax; settings: mean of both orientations
T32 chain: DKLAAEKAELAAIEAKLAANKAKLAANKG

[35] = target: T33, APC8191-AA; test: two-hybrid library CCmax; settings: mean of both orientations
T33 chain: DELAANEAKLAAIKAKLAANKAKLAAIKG

[36] = target: T34, APC8910-AA; test: two-hybrid library CCmax; settings: mean of both orientations
T34 chain: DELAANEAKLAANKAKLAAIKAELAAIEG

[37] = target: T35, APC9096-AA; test: two-hybrid library CCmax; settings: mean of both orientations
T35 chain: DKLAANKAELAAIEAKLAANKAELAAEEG

[38] = target: T36, APC9319-AA; test: two-hybrid library CCmax; settings: mean of both orientations
T36 chain: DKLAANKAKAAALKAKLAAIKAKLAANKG

interaction score [17]: 1.19
interaction score [18]: -0.887
interaction score [19]: -0.995
interaction score [20]: -1.15
interaction score [21]: -0.874
interaction score [22]: -0.992
interaction score [23]: -1.18
interaction score [24]: -0.454
interaction score [25]: -0.949
Binder: DKNAQLEQENAELKQKIAELEWEIAQLEQ [4H3297-bA]

interaction score [26]: -2.07
interaction score [27]: -1.9
Binder: DEIAALEAENAALEYEIAALEAKNAALKG [O8]

interaction score [28]: -1.12
interaction score [29]: -1.34
interaction score [30]: -1.56
interaction score [31]: -2.1
interaction score [32]: -1.51
interaction score [33]: -1.68
interaction score [34]: -1.63
interaction score [35]: -1.7
interaction score [36]: -1.79
interaction score [37]: -1.71
interaction score [38]: -1.55
Binder: DKAAALKAELAAEEAENAALEAKNAALKG [APC3645-AA]

Further lines, the binder ahead of its results:

Binder: ENAALEAKNAALKYEIAALEAEIAALEG [O9]
interaction score [1]: -2.72

Binder: DKIAALKAENAALEAKIAALKAENAALKG [4H2732-AA]
interaction score [2]: 0.324
interaction score [3]: -1.29
interaction score [4]: -1.81
interaction score [5]: -1.46
interaction score [6]: 1.14
interaction score [7]: 0.0758
interaction score [8]: -1.2
interaction score [9]: -1.49
interaction score [10]: -1.22
interaction score [11]: 2.3
interaction score [12]: -1.58
interaction score [13]: -1.5
interaction score [14]: -2.17
interaction score [15]: -1.08
interaction score [16]: -1.15
